“Also recorded” adds a separate entry of the source.
Key:
[1] = system: WV Petunia line (dfr^−/−, F3′5′H^+/+); assay: TLC analysis of pigments in WV crossed lines; format: in vivo
From the text: (§1) In accordance with the present invention, a DHK-specific DFR was developed by replacing asparagine at 134th amino acid residue of Gerbera DFR to leucine. […] Since the W80 Petunia line we transformed accumulates mainly DHK with small amount of DHQ and DHM, it was not clear if the N134L mutant DFR completely lost the capability of reducing DHQ and DHM. To investigate if the N134L mutant DFR produces only pelargonidin in the presence of fully active flavonoid-3′-hydroxylase (F3′H) or flavonoid-3′,5′-hydroxylase (F3′5′H), we crossed our N134L transformant with Petunia lines that are either dfr^−/−/F3′H^+/+ (WR line) or dfr^−/−/F3′5′H^+/+ (WV line). […] To determine the pigments produced in these crossed lines, we performed TLC analysis.
(§2) Gerbera DFR genes containing one amino acid point mutation were made in a similar manner as the chimeric genes. The 5′ region was synthesized using a primer having the Gerbera DFR starting methionine and a primer containing a single codon change. The 3′ region was made with a complementary primer with the single codon change and a primer having the stop codon of Gerbera DFR. The full length mutant sequence was assembled like the chimeric genes above. Each point mutant was cloned into a vector having the 35S CaMV promoter and NOS terminator. The mutagenized region of each mutant DFR was sequenced to ensure the correct residue was changed. Point mutants were then transformed into the W80 Petunia line. The transformants expressing the DFR genes were crossed with WR Petunia line (dfr^−/−, F3′H^+/+) and WV Petunia line (dfr^−/−, F3′5′H^+/+) to determine the substrate specificity of the mutated DFR. Mutations in other loci were not determined in these two Petunia lines.
(§3) Anthocyanidins were separated on cellulose TLC plates as described (Johnson, et al. Plant J. 19:81-85 (1999)). Corollas were sometimes stored at 4° C. for extended periods of time in methanol-0.5% HCl solution. Before adding iso-amylalcohol, the flower extracts were quantified at 530 nm to ensure uniform loading on the TLC plate. […]

[2] = system: WV Petunia line (dfr^−/−, F3′5′H^+/+); assay: Flower colour of WV Petunia line crossed with DFR transformants; format: in vivo
From the text: as §1
(§4) Gerbera DFR genes containing one amino acid point mutation were made in a similar manner as the chimeric genes. The 5′ region was synthesized using a primer having the Gerbera DFR starting methionine and a primer containing a single codon change. The 3′ region was made with a complementary primer with the single codon change and a primer having the stop codon of Gerbera DFR. The full length mutant sequence was assembled like the chimeric genes above. Each point mutant was cloned into a vector having the 35S CaMV promoter and NOS terminator. […] Mutations in other loci were not determined in these two Petunia lines.

[3] = from literature; cited from earlier work
[4] = system: WR Petunia line (dfr^−/−, F3′H^+/+); assay: Flower colour of WR Petunia line crossed with DFR transformants; format: in vivo
From the text: as §1, §4

[5] = system: WR Petunia line (dfr^−/−, F3′H^+/+); assay: TLC analysis of pigments in WR crossed lines; format: in vivo
From the text: as §1, §2, §3

[6] = system: white flowered Petunia mutant (W80); format: in vivo; settings: W80 line (lacks DFR activity, accumulates primarily DHK); DFR gene under 35S CaMV promoter
[7] = system: white flowered Petunia mutant (W80); assay: TLC analysis of anthocyanidins produced in transgenic W80 Petunia flowers; format: in vivo; settings: W80 line, anthocyanidins on cellulose TLC against pelargonidin, cyanidin, delphinidin standards
From the text: In accordance with the present invention, the substrate specificity determining region was identified by determining the abilities of three chimeric DFRs to catalyze the reduction of DHK in the transgenic Petunia lines. In order to identify the region of DFR that determines its substrate specificity, we constructed chimeric DFR genes using cDNA sequences of Petunia (SEQ ID NO: 35) and Gerbera (SEQ ID NO; 1). […] We built three different chimeric genes using regions of high homology as common PCR primer sites (FIG. 1A). The chimeric genes were transformed into a white flowered Petunia mutant (W80) that lacks DFR activity and accumulates primarily DHK but with appreciable amounts of dihydroquercetin (DHQ) and dihydromyricetin (DHM) (Huits et at, 1994). […] The hue of Chimera 1 flowers is very similar to the inbred Petunia mutant RLO1, which has functional DFR activity and accumulates DHK. […] The identified region (approx. 40 amino acids) is highly variable in DFRs from different plant species. By excluding the completely conserved amino acid sequences at the borders, the identified region is narrowed down to 26 amino acids. Hereinafter, this region is referred as substrate specificity determining region.
Anthocyanidins were separated on cellulose TLC plates as described (Johnson, et al. Plant J. 19:81-85 (1999)). Corollas were sometimes stored at 4° C. for extended periods of time in methanol-0.5% HCl solution. Before adding iso-amylalcohol, the flower extracts were quantified at 530 nm to ensure uniform loading on the TLC plate. Anthocyanin standards were purchased from Apin Chemicals Ltd. (Oxfordshire, England).

[8] = Substrate specificity of DFR (reduction of dihydroflavonols); settings: concluded from flower colour and TLC data of WR and WV crosses
From the text: as §1, §4

Molecule	pigments accumulated in crossed line (TLC) ([1]; listed as DFR^WT)	pigments accumulated in crossed line (TLC) ([1]; listed as wild type DFR)	flower color of crossed line [2]	substrate use among DHK, DHQ and DHM [3]	flower color of crossed line [4]	pigments accumulated in crossed line (TLC) ([5]; listed as DFR^WT)	pigments accumulated in crossed line (TLC) ([5]; listed as wild type DFR)	flower color of transgenic Petunia [6]	pigments produced in transgenic Petunia flowers (TLC) ([7]; listed as native Gerbera DFR)	pigments produced in transgenic Petunia flowers (TLC) ([7]; listed as wild type Gebera DFR)	pigments accumulated in crossed line (TLC) ([1]; listed as DFR^N134L)	pigments accumulated in crossed line (TLC) ([5]; listed as DFR^N134L)	substrate preference among DHK, DHQ and DHM [8]	pigments produced in transgenic Petunia flowers (TLC) [7]	pigments produced in transgenic Petunia flowers (TLC) ([7]; listed as DHK-specific DFR)
Gerbera DFR: wild type Gerbera dihydroflavonol 4-reductase (SEQ ID NO: 2) (protein) MEEDSPATVCVTGAAGFIGSWLVMRLLERGYVVHATVRDPGDLKKVKHLLELPKAQTNLKLWKADLTQEGSFDEAIQGCHGVFHLATPMDFESKDPENEIIKPTIEGVLSIIRSCVKAKTVKKLVFTSSAGTVNGQEKQLHVYDESHWSDLDFIYSKKMTAWMYFVSKTLAEKAAWDATKGNNISFISIIPTLVVGPFITSTFPPSLVTALSLITGNEAHYSIIKQGQYVHLDDLCECHIYLYENPKAKGRYICSSHDATIHQLAKIIKDKWPEYYIPTKFPGIDEELPIVSFSSKKLIDTGFEFKYNLEDMFKGAIDTCREKGLLPYSTIKNHINGNHVNGVHHYIKNNDDDHEKGLLCCSKEGQ	accumulated mainly delphinidin	delphinidin	violet colored flowers	able to catalyze dihydrokaempferol (DHK)	red colored flowers	mainly accumulated cyanidin	cyanidin	orange/bric-red color	production of appreciable amounts of cyanidin and delphinidin in addition to pelargonidin	accumulated significant amount of cyanidin and delphinidin in addition to perlargonidin					
N134L: DFR that has leucine instead of aspargine at the 134th position of Gerbera DFR (SEQ ID NO 4) (protein) MEEDSPATVCVTGAAGFIGSWLVMRLLERGYVVHATVRDPGDLKKVKHLLELPKAQTNLKLWKADLTQEGSFDEAIQGCHGVFHLATPMDFESKDPENEIIKPTIEGVLSIIRSCVKAKTVKKLVFTSSAGTVLGQEKQLHVYDESHWSDLDFIYSKKMTAWMYFVSKTLAEKAAWDATKGNNISFISIIPTLVVGPFITSTFPPSLVTALSLITGNEAHYSIIKQGQYVHLDDLCECHIYLYENPKAKGRYICSSHDATIHQLAKIIKDKWPEYYIPTKFPGIDEELPIVSFSSKKLIDTGFEFKYNLEDMFKGAIDTCREKGLLPYSTIKNHINGNHVNGVHHYIKNNDDDHEKGLLCCSKEGQ			white flowers		orange colored flowers			slightly different colored flowers			did not accumulated any pigment other than background level of delphinidin; also recorded: no appreciable amounts of anthocyanidins accumulated other than a background level of delphinidin	accumulated pelargonidin and cyanidin; also recorded: accumulated a large amount of pelargonidin	preferentially utilizes DHK as a substrate over DHQ and cannot reduce DHM	accumulated mostly pelargonidin	production of only pelargonidin
maize DFR: maize DFR introduced into a Petunia mutant line (Meyer et al.) (protein, UniProt P51108 1-357, looked up) Dihydroflavonol 4-reductase: MERGAGASEKGTVLVTGASGFVGSWLVMKLLQAGYTVRATVRDPANVGKTKPLMDLPGATERLSIWKADLAEEGSFHDAIRGCTGVFHVATPMDFLSKDPENEVIKPTVEGMISIMRACKEAGTVRRIVFTSSAGTVNLEERQRPVYDEESWTDVDFCRRVKMTGWMYFVSKTLAEKAALAYAAEHGLDLVTIIPTLVVGPFISASMPPSLITALALITGNAPHYSILKQVQLIHLDDLCDAEIFLFENPAAAGRYVCSSHDVTIHGLAAMLRDRYPEYDVPQRFPGIQDDLQPVRFSSKKLQDLGFTFRYKTLEDMFDAAIRTCQEKGLIPLATAAGGDGFASVRAPGETEATIGA				can convert all three dihydroflavonols to their leucocyanidins											
